# Source: article PMC11947611, “Functional and structural characterization of Staphylococcus aureus N‐acetylglucosamine 1‐phosphate uridyltransferase (GlmU) reveals a redox‐sensitive acetyltransferase activity” (Protein Science : A Publication of the Protein Society, 2025)
# B1: Staphylococcus aureus N-acetylglucosamine 1-phosphate uridyltransferase (GlmU), wild type (enzyme, Staphylococcus aureus NCTC 8325)
# chain: MRRHAIILAAGKGTRMKSKKYKVLHEVAGKPMVEHVLESVKGSGVDQVVTIVGHGAESVKGHLGERSLYSFQEEQLGTAHAVQMAKSHLEDKEGTTIVVCGDTPLITKETLVTLIAHHEDANAQATVLSASIQQPYGYGRIVRNASGRLERIVEEKDATQAEKDINEISSGIFAFNNKTLFEKLTQVKNDNAQGEYYLPDVLSLILNDGGIVEVYRTNDVEEIMGVNDRVMLSQAEKAMQRRTNHYHMLNGVTIIDPDSTYIGPDVTIGSDTVIEPGVRINGRTEIGEDVVIGQYSEINNSTIENGACIQQSVVNDASVGANTKVGPFAQLRPGAQLGADVKVGNFVEIKKADLKDGAKVSHLSYIGDAVIGERTNIGCGTITVNYDGENKFKTIVGKDSFVGCNVNLVAPVTIGDDVLVAAGSTITDDVPNDSLAVARARQTTKEGYRK
# notes: GlmU of Staphylococcus aureus NCTC 8325; the glmU gene was amplified by PCR from genomic DNA; the domains described in the structure span Res. 1-228 (uridyltransferase), 229-251 (linker) and 252-450 (acetyltransferase); Plasmid 6xHis-SaGlmU-pET-16b (NcoI/BamHI); No removal of the tag is described; By intact mass the N-terminal methionine is removed; also called SaGlmU; WT SaGlmU
# Biological target: the molecule itself
# Assay: crystal structure; cocrystals of WT SaGlmU with AcCoA and citrate (PDB 9DQF) and with UTP, CoA and Glc 1-P (PDB 9DR4); reducing conditions, 0.5 mM DTT; 200 mM lithium citrate tribasic tetrahydrate, 15-20% PEG 3350; one monomer in the asymmetric unit, trimer assembly
protein,measurement,value
B1,stoichiometry N,3
